Data from publication PMC13397619.

B1: NLV3 TCR beta chain (CDR3β only) (parent)
chain: ASSPTGGSPSPLH
partner: MLVPMVATV

Variants of: B1
Assay: T-Switch: Jurkat TCRβ−/− cells expressing a CDR3 saturation-mutagenesis library, stained with two peptide-HLA-A*02:01 tetramers (original and novel peptide) plus anti-CD3, FACS-sorted into four gates, gDNA sequenced
Settings: with HLA-A*02:01 with peptide … (NLV 3-1, the original bait), tetramers 1 µg/mL, 30 min on ice, DP and SW gates expanded about 10 days between rounds ('two to three rounds of selection' in the Methods), gate SP: higher = more of the variant in the gate that binds the original peptide and not the novel one = retained original binding. Fold enrichment of the CDR3 variant in one FACS gate of a two-tetra, unresolved parent, parent is a CDR3 fragment, scale: fold enrichment, numbering: sequential-on-construct, sequence …

Variant | enrichment
[…] (CDR3 as printed); T5P derived by comparing it with the table's wild-type CDR3 ASSPTGGSPSPLH | 0
[…] (CDR3 as printed); H13L derived by comparing it with the table's wild-type CDR3 ASSPTGGSPSPLH | 5.69
[…] (CDR3 as printed); T5W derived by comparing it with the table's wild-type CDR3 ASSPTGGSPSPLH | 15.1
[…] (CDR3 as printed); S3E derived by comparing it with the table's wild-type CDR3 ASSPTGGSPSPLH | 0
[…] (CDR3 as printed); A1G derived by comparing it with the table's wild-type CDR3 ASSPTGGSPSPLH | 5.7
[…] (CDR3 as printed); S10V derived by comparing it with the table's wild-type CDR3 ASSPTGGSPSPLH | 0
[…] (CDR3 as printed); S3K derived by comparing it with the table's wild-type CDR3 ASSPTGGSPSPLH | 0
[…] (CDR3 as printed); S3I derived by comparing it with the table's wild-type CDR3 ASSPTGGSPSPLH | 0
[…] (CDR3 as printed); S10K derived by comparing it with the table's wild-type CDR3 ASSPTGGSPSPLH | 0
[…] (CDR3 as printed); S3L derived by comparing it with the table's wild-type CDR3 ASSPTGGSPSPLH | 0
[…] (CDR3 as printed); S2H derived by comparing it with the table's wild-type CDR3 ASSPTGGSPSPLH | 0.863
[…] (CDR3 as printed); T5E derived by comparing it with the table's wild-type CDR3 ASSPTGGSPSPLH | 0
[…] (CDR3 as printed); S3G derived by comparing it with the table's wild-type CDR3 ASSPTGGSPSPLH | 9.71
[…] (CDR3 as printed); S2R derived by comparing it with the table's wild-type CDR3 ASSPTGGSPSPLH | 0
[…] (CDR3 as printed); G6P derived by comparing it with the table's wild-type CDR3 ASSPTGGSPSPLH | 0
[…] (CDR3 as printed); S8A derived by comparing it with the table's wild-type CDR3 ASSPTGGSPSPLH | 11.2
[…] (CDR3 as printed); S2Q derived by comparing it with the table's wild-type CDR3 ASSPTGGSPSPLH | 0
[…] (CDR3 as printed); L12V derived by comparing it with the table's wild-type CDR3 ASSPTGGSPSPLH | 0
[…] (CDR3 as printed); T5C derived by comparing it with the table's wild-type CDR3 ASSPTGGSPSPLH | 0
[…] (CDR3 as printed); S8H derived by comparing it with the table's wild-type CDR3 ASSPTGGSPSPLH | 0
[…] (CDR3 as printed); H13M derived by comparing it with the table's wild-type CDR3 ASSPTGGSPSPLH | 6.07
[…] (CDR3 as printed); S8E derived by comparing it with the table's wild-type CDR3 ASSPTGGSPSPLH | 0

Variant | enrichment
[…] (CDR3 as printed); S3T derived by comparing it with the table's wild-type CDR3 ASSPTGGSPSPLH | 10.9
[…] (CDR3 as printed); P9G derived by comparing it with the table's wild-type CDR3 ASSPTGGSPSPLH | 0
[…] (CDR3 as printed); L12F derived by comparing it with the table's wild-type CDR3 ASSPTGGSPSPLH | 0
[…] (CDR3 as printed); T5S derived by comparing it with the table's wild-type CDR3 ASSPTGGSPSPLH | 0
[…] (CDR3 as printed); S2T derived by comparing it with the table's wild-type CDR3 ASSPTGGSPSPLH | 4.08
[…] (CDR3 as printed); P4F derived by comparing it with the table's wild-type CDR3 ASSPTGGSPSPLH | 1.88
[…] (CDR3 as printed); L12Y derived by comparing it with the table's wild-type CDR3 ASSPTGGSPSPLH | 0
[…] (CDR3 as printed); S10M derived by comparing it with the table's wild-type CDR3 ASSPTGGSPSPLH | 9.51
[…] (CDR3 as printed); P11G derived by comparing it with the table's wild-type CDR3 ASSPTGGSPSPLH | 0
[…] (CDR3 as printed); T5M derived by comparing it with the table's wild-type CDR3 ASSPTGGSPSPLH | 7.93
[…] (CDR3 as printed); S10T derived by comparing it with the table's wild-type CDR3 ASSPTGGSPSPLH | 0
[…] (CDR3 as printed); P11K derived by comparing it with the table's wild-type CDR3 ASSPTGGSPSPLH | 8.18
[…] (CDR3 as printed); P11H derived by comparing it with the table's wild-type CDR3 ASSPTGGSPSPLH | 0
[…] (CDR3 as printed); A1W derived by comparing it with the table's wild-type CDR3 ASSPTGGSPSPLH | 0
[…] (CDR3 as printed); S8C derived by comparing it with the table's wild-type CDR3 ASSPTGGSPSPLH | 0
[…] (CDR3 as printed); H13E derived by comparing it with the table's wild-type CDR3 ASSPTGGSPSPLH | 4.01
[…] (CDR3 as printed); S3W derived by comparing it with the table's wild-type CDR3 ASSPTGGSPSPLH | 0
[…] (CDR3 as printed); P11C derived by comparing it with the table's wild-type CDR3 ASSPTGGSPSPLH | 6.3
[…] (CDR3 as printed); S10C derived by comparing it with the table's wild-type CDR3 ASSPTGGSPSPLH | 0
[…] (CDR3 as printed); G6A derived by comparing it with the table's wild-type CDR3 ASSPTGGSPSPLH | 8.12
[…] (CDR3 as printed); A1P derived by comparing it with the table's wild-type CDR3 ASSPTGGSPSPLH | 0
